Source: the supplement of paper PMC7877785
± gives the uncertainty stated by the source.

Test: self-splicing fitness, log relative to wild type (ln ratio); higher = more splicing; Tetrahymena group I intron in knt gene, E. coli kanamycin selection, DiMSum; sequences stand for … in CUCUCU…GGAGGGAAAAGUUAUCAGGCAUGCACCUGGUAGCUAGUCUUUAAACCAAUAGAUUGCAUCGGUUUAAAAGGCAAGACCGUCAAAUUGCGGGAAAGGGGUCAACAGCCGUUCAGUACCAAGUCUCAGGGGAAACUUUGAGAUGGCCUUGCAAAGGGUAUGGUAAUAAGCUGACGGACAUGGUCCUAACCACGCAGCCAAGUCCUAAGUCAACAGAUCUUCUGUUGAUAUGGAUGCAGUUCACAGACUAAAUGUCGGUCGGGGAAGAUGUAUUCUUCUCAUAAGAUAUAGUCGGACCUCUCCUUAAUGGGAGCUAGCGGAUGAAGUGAUGCAACACUGGAGCCGCUGGGAACUAAUUUGUAUGCGAAAGUAUAUUGAUUAGUUUUGGAGUACUCGUGGUCG
In short: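 Pooled colonies went to amplicon sequencing on an Illumina HiSeq 2500 after six replicate transformations. The plates were LB agar with 100 μg/mL carbenicillin, 50 μM IPTG and 0.2% rhamnose, with or without 25 μg/mL kanamycin, incubated overnight at 37°C or 30°C. The E. coli BL21(DE3) library had all eight P1ex-region intron nucleotides randomised, the intron placed in the knt kanamycin-resistance gene on pET-22b(+). DiMSum fitness is the error-weighted combination of replicate fold changes, kanamycin against none, normalised to wild type.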

Sequence	self-splicing fitness (ln) (30 °C)	self-splicing fitness (ln) (37 °C)
AGCCAGCAAUAUUACGUUCA	-3.21 ± 0.15	-2.72 ± 0.18
AGCCAGCAAUAUUACGUUGG	-3.52 ± 0.4	-2.56 ± 0.23
AGCGAGCAAUAUUACGAACC	-2.18 ± 0.14	-0.856 ± 0.15
AGCGAGCAAUAUUACGAAGA	–	-2.72 ± 0.34
AGCGAGCAAUAUUACGACUA	-0.953 ± 0.37	-1.03 ± 0.31
AGCGAGCAAUAUUACGACUG	-1.91 ± 0.15	-0.973 ± 0.17
AGCGAGCAAUAUUACGAGCG	-1.55 ± 0.14	-0.201 ± 0.14
AGCGAGCAAUAUUACGCAAC	-3.6 ± 0.27	-2.63 ± 0.21
AGCGAGCAAUAUUACGCAAG	-3.18 ± 0.4	-2.43 ± 0.45
AGCGAGCAAUAUUACGCGAA	-2.39 ± 0.36	-1.21 ± 0.32
AGCGAGCAAUAUUACGCGAG	-1.35 ± 0.22	-3.05 ± 0.4
AGCGAGCAAUAUUACGCGGA	-3.21 ± 0.21	-2.45 ± 0.19
AGCGAGCAAUAUUACGCGUG	-1.48 ± 0.098	-1.65 ± 0.13
AGCGAGCAAUAUUACGGGAU	-3.92 ± 0.28	-2.76 ± 0.27
AGCGAGCAAUAUUACGGGUA	-2.6 ± 0.21	-0.993 ± 0.18
AGCGAGCAAUAUUACGGUAG	–	-1.73 ± 0.22
AGCGAGCAAUAUUACGUAGC	-2.83 ± 0.26	-0.813 ± 0.27
AGCGAGCAAUAUUACGUAGG	-3.4 ± 0.35	-2.17 ± 0.22
AGCGAGCAAUAUUACGUAUA	-3.86 ± 0.37	-2.18 ± 0.29
AGCGAGCAAUAUUACGUCAG	-4.3 ± 0.36	-2.58 ± 0.29
AGCGAGCAAUAUUACGUCCA	-2.59 ± 0.15	-1.1 ± 0.15
AGCGAGCAAUAUUACGUCGU	-3.82 ± 0.43	-2.18 ± 0.36
AGCGAGCAAUAUUACGUCUA	-1.92 ± 0.13	-2 ± 0.11
AGCGAGCAAUAUUACGUCUU	-2.73 ± 0.16	-2.08 ± 0.18
AGCGAGCAAUAUUACGUUUC	-4.07 ± 0.21	-2.77 ± 0.18

Sequence	self-splicing fitness (ln) (30 °C)	self-splicing fitness (ln) (37 °C)
AGCUAGCAAUAUUACGAAAC	–	-1.95 ± 0.43
AGCUAGCAAUAUUACGAAAU	-2.4 ± 0.15	-1.83 ± 0.2
AGCUAGCAAUAUUACGACUU	-0.59 ± 0.11	-0.0618 ± 0.12
AGCUAGCAAUAUUACGAUCG	-1.81 ± 0.16	-0.102 ± 0.18
AGCUAGCAAUAUUACGAUGG	-3.87 ± 0.27	-2.05 ± 0.28
AGCUAGCAAUAUUACGCACG	-0.605 ± 0.16	-0.0907 ± 0.18
AGCUAGCAAUAUUACGCAUA	-2.4 ± 0.12	-1.22 ± 0.14
AGCUAGCAAUAUUACGCAUU	-3 ± 0.19	-1.48 ± 0.14
AGCUAGCAAUAUUACGCCCG	–	-0.486 ± 0.32
AGCUAGCAAUAUUACGCGUA	-3.08 ± 0.26	-0.709 ± 0.18
AGCUAGCAAUAUUACGGGAA	-3.13 ± 0.28	-1.67 ± 0.22
AGCUAGCAAUAUUACGGGCG	-0.507 ± 0.098	-0.799 ± 0.15
AGCUAGCAAUAUUACGGUGA	-1.81 ± 0.2	-0.51 ± 0.2
AGCUAGCAAUAUUACGGUGU	-2.56 ± 0.11	-1.22 ± 0.11
AGCUAGCAAUAUUACGUAUA	-2.28 ± 0.15	-2.12 ± 0.23
AGCUAGCAAUAUUACGUCCA	-1.52 ± 0.12	-0.378 ± 0.11
AGCUAGCAAUAUUACGUCUG	-1.88 ± 0.097	-1.56 ± 0.13
AGCUAGCAAUAUUACGUGGC	–	-2.27 ± 0.26
AGCUAGCAAUAUUACGUUUG	-4.09 ± 0.24	-0.747 ± 0.15
AGGAAGCAAUAUUACGACAA	-1.66 ± 0.12	-1.49 ± 0.14
AGGAAGCAAUAUUACGACGU	0.0515 ± 0.072	0.213 ± 0.076
AGGAAGCAAUAUUACGAGUU	-3.11 ± 0.12	-1.03 ± 0.11
AGGAAGCAAUAUUACGAUAG	-3.02 ± 0.28	-1.55 ± 0.38
AGGAAGCAAUAUUACGCAAG	-3.11 ± 0.22	-1.45 ± 0.13
AGGAAGCAAUAUUACGCAAU	-2.58 ± 0.25	-2 ± 0.21

Sequence	self-splicing fitness (ln) (30 °C)	self-splicing fitness (ln) (37 °C)
AGGAAGCAAUAUUACGCAGC	-3.55 ± 0.33	-1.47 ± 0.31
AGGAAGCAAUAUUACGCAGG	-3.16 ± 0.25	-2.21 ± 0.3
AGGAAGCAAUAUUACGCCGG	-0.87 ± 0.17	-0.612 ± 0.23
AGGAAGCAAUAUUACGCCUC	-2.44 ± 0.44	-0.418 ± 0.46
AGGAAGCAAUAUUACGCCUG	-1.15 ± 0.14	0.257 ± 0.17
AGGAAGCAAUAUUACGCGAU	-3.28 ± 0.28	-2.11 ± 0.25
AGGAAGCAAUAUUACGCGCU	-1.01 ± 0.13	-0.788 ± 0.17
AGGAAGCAAUAUUACGCUCC	-1.87 ± 0.31	–
AGGAAGCAAUAUUACGGCAG	-2.3 ± 0.31	-0.552 ± 0.32
AGGAAGCAAUAUUACGGGCG	-0.564 ± 0.11	-0.865 ± 0.15
AGGAAGCAAUAUUACGUAAU	-0.858 ± 0.14	-1.42 ± 0.18
AGGAAGCAAUAUUACGUCGG	-2.61 ± 0.15	-1.13 ± 0.15
AGGAAGCAAUAUUACGUGAG	-0.821 ± 0.1	-1.57 ± 0.14
AGGAAGCAAUAUUACGUGCA	-1.12 ± 0.11	-1.32 ± 0.13
AGGAAGCAAUAUUACGUGGG	-4.36 ± 0.31	-3.38 ± 0.23
AGGAAGCAAUAUUACGUGUA	-2.06 ± 0.1	-0.914 ± 0.085
AGGAAGCAAUAUUACGUUCA	-0.532 ± 0.13	-1.05 ± 0.21
AGGCAGCAAUAUUACGAAUA	-2.67 ± 0.25	-2.08 ± 0.22
AGGCAGCAAUAUUACGAUCG	-0.369 ± 0.077	0.135 ± 0.093
AGGCAGCAAUAUUACGCAAG	-1.22 ± 0.072	-0.387 ± 0.098
AGGCAGCAAUAUUACGCCGU	-1.92 ± 0.19	-0.237 ± 0.17
AGGCAGCAAUAUUACGCGUU	-2.29 ± 0.12	-0.692 ± 0.11
AGGCAGCAAUAUUACGGAAC	-4.21 ± 0.47	-2.29 ± 0.36
AGGCAGCAAUAUUACGGACC	-0.728 ± 0.14	-0.53 ± 0.18
AGGCAGCAAUAUUACGGAGG	-4.29 ± 0.26	-2.66 ± 0.25

Sequence	self-splicing fitness (ln) (30 °C)	self-splicing fitness (ln) (37 °C)
AGGCAGCAAUAUUACGGCUA	-0.132 ± 0.069	-0.399 ± 0.078
AGGCAGCAAUAUUACGGGAU	-2.85 ± 0.16	-1.39 ± 0.14
AGGCAGCAAUAUUACGGGGU	-3.54 ± 0.21	-3.25 ± 0.37
AGGCAGCAAUAUUACGGUUC	-1.43 ± 0.14	-1.8 ± 0.19
AGGCAGCAAUAUUACGUAGC	-2.64 ± 0.23	-1.29 ± 0.17
AGGCAGCAAUAUUACGUAGG	-2.04 ± 0.083	-1.64 ± 0.12
AGGCAGCAAUAUUACGUCCU	-3.02 ± 0.26	-1.29 ± 0.37
AGGCAGCAAUAUUACGUCGG	-0.675 ± 0.08	-0.941 ± 0.09
AGGCAGCAAUAUUACGUCGU	-0.986 ± 0.058	-0.962 ± 0.088
AGGCAGCAAUAUUACGUCUG	-2.66 ± 0.15	-1.51 ± 0.15
AGGCAGCAAUAUUACGUGAA	-1.12 ± 0.07	-0.932 ± 0.11
AGGGAGCAAUAUUACGAACC	-1.52 ± 0.23	-1.48 ± 0.29
AGGGAGCAAUAUUACGAGCG	-2.94 ± 0.47	-0.874 ± 0.43
AGGGAGCAAUAUUACGCAAU	–	-1.7 ± 0.47
AGGGAGCAAUAUUACGCAGG	–	-0.965 ± 0.24
AGGGAGCAAUAUUACGCCCG	-3.31 ± 0.5	-0.737 ± 0.49
AGGGAGCAAUAUUACGCCGU	-2.11 ± 0.42	-0.233 ± 0.39
AGGGAGCAAUAUUACGCCUU	-3.04 ± 0.36	–
AGGGAGCAAUAUUACGCGCG	-1.62 ± 0.35	-1.11 ± 0.37
AGGGAGCAAUAUUACGGAUU	-4.58 ± 0.38	-2.67 ± 0.31
AGGGAGCAAUAUUACGGCGG	-2.87 ± 0.21	-2.73 ± 0.3
AGGGAGCAAUAUUACGUCAA	-3.37 ± 0.44	-2.52 ± 0.45
AGGGAGCAAUAUUACGUCCU	-2.66 ± 0.29	-1.55 ± 0.24
